The record followed here is patent US20250223614A1.

Experiment [1] deals with Gp41.1 C-intein fused to the N-terminus of the C-terminal fragment of adenosine base editor ABE8.5 (starting at Cas9 position 310). Put plainly: cell-based or functional assay.
The target of experiment [2] is Cfa C-intein fused to the N-terminus of the C-terminal fragment of adenosine base editor ABE8.5 (starting at Cas9 position 310). Put plainly: cell-based or functional assay.

In experiment [1], “N-terminal fragment of adenosine base editor ABE8.5 (ending at Cas9 position 309) fused at its C-terminus to the Gp41.1-SC N-intein” yielded an A7G Edit % (Exp. 1); average (N = 4) percent A > G conversion of 54.9%, an A7G Edit % (Exp. 2); average (N = 4) percent A > G conversion of 72.5% and an A7G Edit; average percent A > G conversion (2 experiments only) of 63.7%.

As for “N-terminal fragment of adenosine base editor ABE8.5 (ending at Cas9 position 309) fused at its C-terminus to Cfa N-intein”, in experiment [2], the A7G Edit % (Exp. 1); average (N = 4) percent A > G conversion was 48.2%, the A7G Edit % (Exp. 2); average (N = 4) percent A > G conversion came out at 74.7%, the A7G Edit; average percent A > G conversion measured in Exps. 1-3 came to 64.3% and the A7G Edit; percent A > G conversion (Exp. 3) is 70%.
